From the Human Domainome abundance scans (Beltran et al. 2025)
± gives the uncertainty stated by the source.

B1: Steroid hormone receptor ERR2, residues 100 to 176; numbered along this chain, O95718 (parent)
chain: KRLCLVCGDIASGYHYGVASCEACKAFFKRTIQGNIEYSCPATNECEITKRRRKSCQACRFMKCLKVGMLKEGVRLD

Variants of: B1
Assay: abundance fitness (aPCA) (normalised: wild type 0, dead -1); higher = more abundant; growth selection in yeast, the domain comes from the species named
Conditions: Homo sapiens

| Variant | abundance fitness |
| --- | --- |
| KRLCLVCGDIASGYHYGVASCEACKAFFKRTIQGNIEYSCPATNECEITKRRRKNCQACRFMKCLKVGMLKEGVRLD | 0.405 ± 0.085 |
| KRLCLVCGDIASGYHYGVASCEACKAFFKRTIQGNIEYSCPATNECEITKRRRKTCQACRFMKCLKVGMLKEGVRLD | 0.277 ± 0.058 |
| KRLCLVCGDIASGYHYGVASCEACKAFFKRTIQGNIEYSCPATNECEITKRRRKICQACRFMKCLKVGMLKEGVRLD | 0.344 ± 0.09 |
| KRLCLVCGDIASGYHYGVASCEACKAFFKRTIQGNIEYSCPATNECEITKRRRKPCQACRFMKCLKVGMLKEGVRLD | 0.257 ± 0.069 |
| KRLCLVCGDIASGYHYGVASCEACKAFFKRTIQGNIEYSCPATNECEITKRRRKGCQACRFMKCLKVGMLKEGVRLD | 0.336 ± 0.039 |
| KRLCLVCGDIASGYHYGVASCEACKAFFKRTIQGNIEYSCPATNECEITKRRRKLCQACRFMKCLKVGMLKEGVRLD | 0.341 ± 0.042 |
| KRLCLVCGDIASGYHYGVASCEACKAFFKRTIQGNIEYSCPATNECEITKRRRKHCQACRFMKCLKVGMLKEGVRLD | 0.351 ± 0.094 |
| KRLCLVCGDIASGYHYGVASCEACKAFFKRTIQGNIEYSCPATNECEITKRRRKDCQACRFMKCLKVGMLKEGVRLD | 0.318 ± 0.071 |
| KRLCLVCGDIASGYHYGVASCEACKAFFKRTIQGNIEYSCPATNECEITKRRRKKCQACRFMKCLKVGMLKEGVRLD | 0.149 ± 0.057 |
| KRLCLVCGDIASGYHYGVASCEACKAFFKRTIQGNIEYSCPATNECEITKRRRKACQACRFMKCLKVGMLKEGVRLD | 0.278 ± 0.044 |
| KRLCLVCGDIASGYHYGVASCEACKAFFKRTIQGNIEYSCPATNECEITKRRRKMCQACRFMKCLKVGMLKEGVRLD | 0.374 ± 0.062 |
| KRLCLVCGDIASGYHYGVASCEACKAFFKRTIQGNIEYSCPATNECEITKRRRKCCQACRFMKCLKVGMLKEGVRLD | 0.393 ± 0.063 |
| KRLCLVCGDIASGYHYGVASCEACKAFFKRTIQGNIEYSCPATNECEITKRRRKWCQACRFMKCLKVGMLKEGVRLD | 0.263 ± 0.051 |
| KRLCLVCGDIASGYHYGVASCEACKAFFKRTIQGNIEYSCPATNECEITKRRRKRCQACRFMKCLKVGMLKEGVRLD | 0.22 ± 0.041 |
| KRLCLVCGDIASGYHYGVASCEACKAFFKRTIQGNIEYSCPATNECEITKRRRKYCQACRFMKCLKVGMLKEGVRLD | 0.206 ± 0.079 |
| KRLCLVCGDIASGYHYGVASCEACKAFFKRTIQGNIEYSCPATNECEITKRRRKSFQACRFMKCLKVGMLKEGVRLD | -0.936 ± 0.21 |
| KRLCLVCGDIASGYHYGVASCEACKAFFKRTIQGNIEYSCPATNECEITKRRRKSSQACRFMKCLKVGMLKEGVRLD | -0.847 ± 0.12 |
| KRLCLVCGDIASGYHYGVASCEACKAFFKRTIQGNIEYSCPATNECEITKRRRKSLQACRFMKCLKVGMLKEGVRLD | -0.76 ± 0.085 |
| KRLCLVCGDIASGYHYGVASCEACKAFFKRTIQGNIEYSCPATNECEITKRRRKSPQACRFMKCLKVGMLKEGVRLD | -0.666 ± 0.15 |
| KRLCLVCGDIASGYHYGVASCEACKAFFKRTIQGNIEYSCPATNECEITKRRRKSTQACRFMKCLKVGMLKEGVRLD | -0.691 ± 0.14 |
| KRLCLVCGDIASGYHYGVASCEACKAFFKRTIQGNIEYSCPATNECEITKRRRKSAQACRFMKCLKVGMLKEGVRLD | -0.828 ± 0.12 |
| KRLCLVCGDIASGYHYGVASCEACKAFFKRTIQGNIEYSCPATNECEITKRRRKSNQACRFMKCLKVGMLKEGVRLD | -0.845 ± 0.25 |
| KRLCLVCGDIASGYHYGVASCEACKAFFKRTIQGNIEYSCPATNECEITKRRRKSHQACRFMKCLKVGMLKEGVRLD | -0.599 ± 0.19 |
| KRLCLVCGDIASGYHYGVASCEACKAFFKRTIQGNIEYSCPATNECEITKRRRKSIQACRFMKCLKVGMLKEGVRLD | -0.679 ± 0.18 |

| Variant | abundance fitness |
| --- | --- |
| KRLCLVCGDIASGYHYGVASCEACKAFFKRTIQGNIEYSCPATNECEITKRRRKSGQACRFMKCLKVGMLKEGVRLD | -0.718 ± 0.073 |
| KRLCLVCGDIASGYHYGVASCEACKAFFKRTIQGNIEYSCPATNECEITKRRRKSMQACRFMKCLKVGMLKEGVRLD | -0.9 ± 0.16 |
| KRLCLVCGDIASGYHYGVASCEACKAFFKRTIQGNIEYSCPATNECEITKRRRKSWQACRFMKCLKVGMLKEGVRLD | -0.722 ± 0.14 |
| KRLCLVCGDIASGYHYGVASCEACKAFFKRTIQGNIEYSCPATNECEITKRRRKSYQACRFMKCLKVGMLKEGVRLD | -0.884 ± 0.24 |
| KRLCLVCGDIASGYHYGVASCEACKAFFKRTIQGNIEYSCPATNECEITKRRRKSDQACRFMKCLKVGMLKEGVRLD | -1.17 ± 0.32 |
| KRLCLVCGDIASGYHYGVASCEACKAFFKRTIQGNIEYSCPATNECEITKRRRKSRQACRFMKCLKVGMLKEGVRLD | -0.872 ± 0.097 |
| KRLCLVCGDIASGYHYGVASCEACKAFFKRTIQGNIEYSCPATNECEITKRRRKSEQACRFMKCLKVGMLKEGVRLD | -0.627 ± 0.1 |
| KRLCLVCGDIASGYHYGVASCEACKAFFKRTIQGNIEYSCPATNECEITKRRRKSCHACRFMKCLKVGMLKEGVRLD | -0.347 ± 0.1 |
| KRLCLVCGDIASGYHYGVASCEACKAFFKRTIQGNIEYSCPATNECEITKRRRKSCGACRFMKCLKVGMLKEGVRLD | 0.122 ± 0.034 |
| KRLCLVCGDIASGYHYGVASCEACKAFFKRTIQGNIEYSCPATNECEITKRRRKSCCACRFMKCLKVGMLKEGVRLD | -0.152 ± 0.067 |
| KRLCLVCGDIASGYHYGVASCEACKAFFKRTIQGNIEYSCPATNECEITKRRRKSCFACRFMKCLKVGMLKEGVRLD | -0.243 ± 0.089 |
| KRLCLVCGDIASGYHYGVASCEACKAFFKRTIQGNIEYSCPATNECEITKRRRKSCLACRFMKCLKVGMLKEGVRLD | -0.232 ± 0.046 |
| KRLCLVCGDIASGYHYGVASCEACKAFFKRTIQGNIEYSCPATNECEITKRRRKSCMACRFMKCLKVGMLKEGVRLD | -0.221 ± 0.063 |
| KRLCLVCGDIASGYHYGVASCEACKAFFKRTIQGNIEYSCPATNECEITKRRRKSCKACRFMKCLKVGMLKEGVRLD | -0.118 ± 0.067 |
| KRLCLVCGDIASGYHYGVASCEACKAFFKRTIQGNIEYSCPATNECEITKRRRKSCDACRFMKCLKVGMLKEGVRLD | -0.042 ± 0.062 |
| KRLCLVCGDIASGYHYGVASCEACKAFFKRTIQGNIEYSCPATNECEITKRRRKSCIACRFMKCLKVGMLKEGVRLD | -0.633 ± 0.15 |
| KRLCLVCGDIASGYHYGVASCEACKAFFKRTIQGNIEYSCPATNECEITKRRRKSCNACRFMKCLKVGMLKEGVRLD | -0.246 ± 0.087 |
| KRLCLVCGDIASGYHYGVASCEACKAFFKRTIQGNIEYSCPATNECEITKRRRKSCAACRFMKCLKVGMLKEGVRLD | -0.018 ± 0.046 |
| KRLCLVCGDIASGYHYGVASCEACKAFFKRTIQGNIEYSCPATNECEITKRRMKSCQACRFMKCLKVGMLKEGVRLD | 0.107 ± 0.082 |
| KRLCLVCGDIASGYHYGVASCEACKAFFKRTIQGNIEYSCPATNECEITKRRLKSCQACRFMKCLKVGMLKEGVRLD | 0.074 ± 0.057 |
| KRLCLVCGDIASGYHYGVASCEACKAFFKRTIQGNIEYSCPATNECEITKRRVKSCQACRFMKCLKVGMLKEGVRLD | -0.008 ± 0.054 |
| KRLCLVCGDIASGYHYGVASCEACKAFFKRTIQGNIEYSCPATNECEITKRRGKSCQACRFMKCLKVGMLKEGVRLD | 0.049 ± 0.043 |
| KRLCLVCGDIASGYHYGVASCEACKAFFKRTIQGNIEYSCPATNECEITKRRWKSCQACRFMKCLKVGMLKEGVRLD | -0.084 ± 0.06 |
| KRLCLVCGDIASGYHYGVASCEACKAFFKRTIQGNIEYSCPATNECEITKRRNKSCQACRFMKCLKVGMLKEGVRLD | 0.027 ± 0.093 |

| Variant | abundance fitness |
| --- | --- |
| KRLCLVCGDIASGYHYGVASCEACKAFFKRTIQGNIEYSCPATNECEITKRRSKSCQACRFMKCLKVGMLKEGVRLD | -0.114 ± 0.058 |
| KRLCLVCGDIASGYHYGVASCEACKAFFKRTIQGNIEYSCPATNECEITKRRKKSCQACRFMKCLKVGMLKEGVRLD | 0.015 ± 0.078 |
| KRLCLVCGDIASGYHYGVASCEACKAFFKRTIQGNIEYSCPATNECEITKRRQKSCQACRFMKCLKVGMLKEGVRLD | 0.096 ± 0.066 |
| KRLCLVCGDIASGYHYGVASCEACKAFFKRTIQGNIEYSCPATNECEITKRRTKSCQACRFMKCLKVGMLKEGVRLD | 0.063 ± 0.065 |
| KRLCLVCGDIASGYHYGVASCEACKAFFKRTIQGNIEYSCPATNECEITKRRPKSCQACRFMKCLKVGMLKEGVRLD | -0.069 ± 0.074 |
| KRLCLVCGDIASGYHYGVASCEACKAFFKRTIQGNIEYSCPATNECEITKRRFKSCQACRFMKCLKVGMLKEGVRLD | 0.065 ± 0.08 |
| KRLCLVCGDIASGYHYGVASCEACKAFFKRTIQGNIEYSCPATNECEITKRRYKSCQACRFMKCLKVGMLKEGVRLD | -0.14 ± 0.13 |
| KRLCLVCGDIASGYHYGVASCEACKAFFKRTIQGNIEYSCPATNECEITKRRRRSCQACRFMKCLKVGMLKEGVRLD | 0.008 ± 0.044 |
| KRLCLVCGDIASGYHYGVASCEACKAFFKRTIQGNIEYSCPATNECEITKRRRASCQACRFMKCLKVGMLKEGVRLD | 0.009 ± 0.055 |
| KRLCLVCGDIASGYHYGVASCEACKAFFKRTIQGNIEYSCPATNECEITKRRRCSCQACRFMKCLKVGMLKEGVRLD | -0.351 ± 0.1 |
| KRLCLVCGDIASGYHYGVASCEACKAFFKRTIQGNIEYSCPATNECEITKRRRFSCQACRFMKCLKVGMLKEGVRLD | -0.243 ± 0.12 |
| KRLCLVCGDIASGYHYGVASCEACKAFFKRTIQGNIEYSCPATNECEITKRRRDSCQACRFMKCLKVGMLKEGVRLD | 0.092 ± 0.077 |
| KRLCLVCGDIASGYHYGVASCEACKAFFKRTIQGNIEYSCPATNECEITKRRRGSCQACRFMKCLKVGMLKEGVRLD | 0.155 ± 0.043 |
| KRLCLVCGDIASGYHYGVASCEACKAFFKRTIQGNIEYSCPATNECEITKRRRLSCQACRFMKCLKVGMLKEGVRLD | 0.005 ± 0.049 |
| KRLCLVCGDIASGYHYGVASCEACKAFFKRTIQGNIEYSCPATNECEITKRRRQSCQACRFMKCLKVGMLKEGVRLD | 0.195 ± 0.065 |
| KRLCLVCGDIASGYHYGVASCEACKAFFKRTIQGNIEYSCPATNECEITKRRRISCQACRFMKCLKVGMLKEGVRLD | 0.073 ± 0.093 |
| KRLCLVCGDIASGYHYGVASCEACKAFFKRTIQGNIEYSCPATNECEITKRRRHSCQACRFMKCLKVGMLKEGVRLD | 0.144 ± 0.11 |
| KRLCLVCGDIASGYHYGVASCEACKAFFKRTIQGNIEYSCPATNECEITKRRRWSCQACRFMKCLKVGMLKEGVRLD | -0.05 ± 0.058 |
| KRLCLVCGDIASGYHYGVASCEACKAFFKRTIQGNIEYSCPATNECEITKRRRNSCQACRFMKCLKVGMLKEGVRLD | 0.175 ± 0.086 |
| KRLCLVCGDIASGYHYGVASCEACKAFFKRTIQGNIEYSCPATNECEITKRRRYSCQACRFMKCLKVGMLKEGVRLD | 0.091 ± 0.08 |
| KRLCLVCGDIASGYHYGVASCEACKAFFKRTIQGNIEYSCPATNECEITKRRRESCQACRFMKCLKVGMLKEGVRLD | 0.129 ± 0.055 |
| KRLCLVCGDIASGYHYGVASCEACKAFFKRTIQGNIEYSCPATNECEITKRRRVSCQACRFMKCLKVGMLKEGVRLD | 0.007 ± 0.045 |
| KRLCLVCGDIASGYHYGVASCEACKAFFKRTIQGNIEYSCPATNECEITKRRRTSCQACRFMKCLKVGMLKEGVRLD | -0.024 ± 0.066 |
